According to publication doi:10.1101/2021.09.02.458805 (bioRxiv, 2021):

T1: Cft1 (S. cerevisiae, UniProt Q06632 1-1357)
T1 sequence (looked up): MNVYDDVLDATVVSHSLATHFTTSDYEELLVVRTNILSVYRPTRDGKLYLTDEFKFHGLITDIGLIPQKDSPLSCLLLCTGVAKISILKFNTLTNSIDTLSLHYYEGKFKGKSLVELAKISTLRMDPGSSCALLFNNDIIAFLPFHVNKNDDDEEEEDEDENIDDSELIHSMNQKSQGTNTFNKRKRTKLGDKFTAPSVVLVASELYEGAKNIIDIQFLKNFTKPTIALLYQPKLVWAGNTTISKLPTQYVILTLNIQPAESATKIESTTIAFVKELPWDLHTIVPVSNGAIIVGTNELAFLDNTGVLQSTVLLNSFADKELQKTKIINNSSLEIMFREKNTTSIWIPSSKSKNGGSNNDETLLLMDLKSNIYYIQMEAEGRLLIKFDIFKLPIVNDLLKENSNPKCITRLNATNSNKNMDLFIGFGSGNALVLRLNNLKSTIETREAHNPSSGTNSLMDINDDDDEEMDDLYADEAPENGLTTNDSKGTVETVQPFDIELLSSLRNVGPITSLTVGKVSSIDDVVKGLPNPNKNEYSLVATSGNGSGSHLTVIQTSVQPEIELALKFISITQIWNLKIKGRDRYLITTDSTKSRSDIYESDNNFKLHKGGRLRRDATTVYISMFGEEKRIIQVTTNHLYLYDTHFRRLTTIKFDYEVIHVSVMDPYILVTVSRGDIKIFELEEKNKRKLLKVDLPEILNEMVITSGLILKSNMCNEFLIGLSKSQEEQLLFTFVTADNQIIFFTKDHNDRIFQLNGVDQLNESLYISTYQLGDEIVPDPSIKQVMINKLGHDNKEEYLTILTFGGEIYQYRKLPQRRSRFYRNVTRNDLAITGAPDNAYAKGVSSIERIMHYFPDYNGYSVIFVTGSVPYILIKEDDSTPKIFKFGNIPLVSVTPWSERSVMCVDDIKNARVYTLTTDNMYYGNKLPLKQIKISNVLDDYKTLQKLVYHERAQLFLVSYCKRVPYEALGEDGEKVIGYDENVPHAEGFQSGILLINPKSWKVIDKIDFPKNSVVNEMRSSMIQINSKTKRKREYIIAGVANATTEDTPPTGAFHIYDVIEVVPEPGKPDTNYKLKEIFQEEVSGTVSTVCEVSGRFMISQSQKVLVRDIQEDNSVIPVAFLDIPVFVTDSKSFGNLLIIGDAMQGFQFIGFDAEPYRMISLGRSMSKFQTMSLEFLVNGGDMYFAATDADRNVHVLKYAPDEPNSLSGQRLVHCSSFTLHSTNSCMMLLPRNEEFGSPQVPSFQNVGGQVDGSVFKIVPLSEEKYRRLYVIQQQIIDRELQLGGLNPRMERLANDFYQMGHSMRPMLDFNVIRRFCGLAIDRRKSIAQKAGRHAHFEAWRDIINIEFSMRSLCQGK

B1: Yth1 (natural protein, S. cerevisiae, UniProt Q06102 1-208, looked up)
chain: MSLIHPDTAKYPFKFEPFLRQEYSFSLDPDRPICEFYNSREGPKSCPRGPLCPKKHVLPIFQNKIVCRHWLRGLCKKNDQCEYLHEYNLRKMPECVFFSKNGYCTQSPDCQYLHIDPASKIPKCENYEMGFCPLGSSCPRRHIKKVFCQRYMTGFCPLGKDECDMEHPQFIIPDEGSKLRIKRDDEINTRKMDEEKERRLNAIINGEV
B2: Cft2(S), residues 1-720 (domain or fragment, S. cerevisiae, UniProt Q12102 1-720, looked up)
chain: MTYKYNCCDDGSGTTVGSVVRFDNVTLLIDPGWNPSKVSYEQCIKYWEKVIPEIDVIILSQPTIECLGAHSLLYYNFTSHFISRIQVYATLPVINLGRVSTIDSYASAGVIGPYDTNKLDLEDIEISFDHIVPLKYSQLVDLRSRYDGLTLLAYNAGVCPGGSIWCISTYSEKLVYAKRWNHTRDNILNAASILDATGKPLSTLMRPSAIITTLDRFGSSQPFKKRSKIFKDTLKKGLSSDGSVIIPVDMSGKFLDLFTQVHELLFESTKINAHTQVPVLILSYARGRTLTYAKSMLEWLSPSLLKTWENRNNTSPFEIGSRIKIIAPNELSKYPGSKICFVSEVGALINEVIIKVGNSEKTTLILTKPSFECASSLDKILEIVEQDERNWKTFPEDGKSFLCDNYISIDTIKEEPLSKEETEAFKVQLKEKKRDRNKKILLVKRESKKLANGNAIIDDTNGERAMRNQDILVENVNGVPPIDHIMGGDEDDDEEEENDNLLNLLKDNSEKSAAKKNTEVPVDIIIQPSAASKHKMFPFNPAKIKKDDYGTVVDFTMFLPDDSDNVNQNSRKRPLKDGAKTTSPVNEEDNKNEEEDGYNMSDPISKRSKHRASRYSGFSGTGEAENFDNLDYLKIDKTLSKRTISTVNVQLKCSVVILNLQSLVDQRSASIIWPSLKSRKIVLSAPKQIQNEEITAKLIKKNIEVVNMPLNKIVEFSTTI
B3: Pfs2 with SII tag, as subunit of the purified polymerase module (natural protein, S. cerevisiae, UniProt P42841 1-465, looked up)
chain: MDGHNQNQYQNQNQIQQSQQPPLKKYVTQRRSVDVSSPYINLYYNRRHGLPNLVVEPETSYTIDIMPPNAYRGRDRVINLPSKFTHLSSNKVKHVIPAIQWTPEGRRLVVATYSGEFSLWNASSFTFETLMQAHDSAVTTMKYSHDSDWMISGDADGMIKIWQPNFSMVKEIDAAHTESIRDMAFSSNDSKFVTCSDDNILKIWNFSNGKQERVLSGHHWDVKSCDWHPEMGLIASASKDNLVKLWDPRSGNCISSILKFKHTVLKTRFQPTKGNLLMAISKDKSCRVFDIRYSMKELMCVRDETDYMTLEWHPINESMFTLACYDGSLKHFDLLQNLNEPILTIPYAHDKCITSLSYNPVGHIFATAAKDRTIRFWTRARPIDPNAYDDPTYNNKKINGWFFGINNDINAVREKSEFGAAPPPPATLEPHALPNMNGFINKKPRQEIPGIDSNIKSSTLPGLSI

Legend:
Cft2(S), residues 1-720 [1] = target: B2; assay: cross-linking
Cft1 = target: T1, Cft1; assay: cryo-EM structure
Cft2(S), residues 1-720 [2] = target: B2; assay: cryo-EM structure

Binder: B1
binding result (Cft2(S), residues 1-720 [1]): binds

Binder: B2
binding result (Cft1): binds

Binder: B3
binding result (Cft2(S), residues 1-720 [2]): binds
